One test concerns the target T1, ErbB4 (Rattus norvegicus, UniProt Q62956).
T1 construct: forming the ErbB2/ErbB4 complex in cardiomyocytes and the ErbB2/ErbB3 complex in Schwann cells; endogenous in cells; host or cells: primary neonatal rat cardiomyocytes (Sprague Dawley pups, 0 to 4 days old)
In words: In vitro phosphorylation of Akt in neonatal rat cardiomyocytes. The format is cell-based. Particulars: for Selectivity SC/CM: ratio of EC50s Schwann cells/cardiomyocytes; for CM % Agonism AVG: top value of the Akt phosphorylation data points in cardiomyocytes, wild-type control 100; for EC50: Akt (Serine 473) phosphorylation, neonatal rat cardiomyocytes, 15 minutes treatment, read-out: Cardiomyocyte (CM) (ErbB4) Avg EC50. As to the method:
(§1) In Vitro Phosphorylation of Akt in Neonatal Rat Cardiomyocytes and Rat Schwann Cells by Neuregulin Variants
(§2) Specificity of neuregulin variants towards cardiomyocytes (ErbB4) versus Schwann cells (ErbB3) was tested by measuring Akt activity generated by formation of the ErbB2/ErbB4 and ErbB2/ErbB3 complexes. Upon activation by neuregulin, the ErbB4 and ErbB3 receptors dimerize preferentially with the ErbB2 co-receptor, forming the ErbB2/ErbB4 complex in cardiomyocytes and the ErbB2/ErbB3 complex in Schwann cells, both of which signal through the Akt pathway. Neonatal rat cardiomyocytes were isolated from hearts of Sprague Dawley rat pups at 0 to 4 days old according to manufacturer's protocol using the Neomyt kit and plated on Surecoat plates in NS media containing serum (all from Cellultron Life Technologies, Baltimore, MD). Rat Schwann cells were plated in Poly-D-Lysine coated plates with Dulbecco's modified Eagle's media (DMEM) supplemented with fetal bovine serum (Thermo Fisher) and forskolin (Millipore Sigma).
(§3) After a 24-hour incubation in a humidified incubator maintained at 37° C. and 5% CO2, cardiomyocytes and Schwann cells were washed with serum free media and incubated an additional 16 hours in DMEM supplemented with bovine serum albumin (Sigma). Both cell lines were then treated with titrations of the neuregulin variant molecules for 15 minutes, upon which cells were lysed in lysis buffer (Meso Scale Discovery (MSD)). For detection of Akt phosphorylation, lysates were added to the Multi-Spot 96-Well 4-Spot Phospho (Serine 473)/Total Akt plates (MSD), incubated according to the manufacturer's protocol and read in the SECTOR Imager 6000 (MSD). For both cell assays, the percent phosphorylation of Akt was calculated by multiplying the phospho Akt signal by 2, then dividing by the phospho Akt signal added to the total Akt signal and then multiplying by 100. The phosphorylation of Akt data points were fitted using a log (agonist) versus response, variable slope (4 parameters) analysis in GraphPad Prism to generate EC50 curves. The CM % agonism reflect the top value of the data points.

In another test the target is T2, ErbB3 (Rattus norvegicus, UniProt Q62799).
T2 construct: forming the ErbB2/ErbB4 complex in cardiomyocytes and the ErbB2/ErbB3 complex in Schwann cells; endogenous in cells; host or cells: rat Schwann cells
T2 sequence (Q62799 20-1339): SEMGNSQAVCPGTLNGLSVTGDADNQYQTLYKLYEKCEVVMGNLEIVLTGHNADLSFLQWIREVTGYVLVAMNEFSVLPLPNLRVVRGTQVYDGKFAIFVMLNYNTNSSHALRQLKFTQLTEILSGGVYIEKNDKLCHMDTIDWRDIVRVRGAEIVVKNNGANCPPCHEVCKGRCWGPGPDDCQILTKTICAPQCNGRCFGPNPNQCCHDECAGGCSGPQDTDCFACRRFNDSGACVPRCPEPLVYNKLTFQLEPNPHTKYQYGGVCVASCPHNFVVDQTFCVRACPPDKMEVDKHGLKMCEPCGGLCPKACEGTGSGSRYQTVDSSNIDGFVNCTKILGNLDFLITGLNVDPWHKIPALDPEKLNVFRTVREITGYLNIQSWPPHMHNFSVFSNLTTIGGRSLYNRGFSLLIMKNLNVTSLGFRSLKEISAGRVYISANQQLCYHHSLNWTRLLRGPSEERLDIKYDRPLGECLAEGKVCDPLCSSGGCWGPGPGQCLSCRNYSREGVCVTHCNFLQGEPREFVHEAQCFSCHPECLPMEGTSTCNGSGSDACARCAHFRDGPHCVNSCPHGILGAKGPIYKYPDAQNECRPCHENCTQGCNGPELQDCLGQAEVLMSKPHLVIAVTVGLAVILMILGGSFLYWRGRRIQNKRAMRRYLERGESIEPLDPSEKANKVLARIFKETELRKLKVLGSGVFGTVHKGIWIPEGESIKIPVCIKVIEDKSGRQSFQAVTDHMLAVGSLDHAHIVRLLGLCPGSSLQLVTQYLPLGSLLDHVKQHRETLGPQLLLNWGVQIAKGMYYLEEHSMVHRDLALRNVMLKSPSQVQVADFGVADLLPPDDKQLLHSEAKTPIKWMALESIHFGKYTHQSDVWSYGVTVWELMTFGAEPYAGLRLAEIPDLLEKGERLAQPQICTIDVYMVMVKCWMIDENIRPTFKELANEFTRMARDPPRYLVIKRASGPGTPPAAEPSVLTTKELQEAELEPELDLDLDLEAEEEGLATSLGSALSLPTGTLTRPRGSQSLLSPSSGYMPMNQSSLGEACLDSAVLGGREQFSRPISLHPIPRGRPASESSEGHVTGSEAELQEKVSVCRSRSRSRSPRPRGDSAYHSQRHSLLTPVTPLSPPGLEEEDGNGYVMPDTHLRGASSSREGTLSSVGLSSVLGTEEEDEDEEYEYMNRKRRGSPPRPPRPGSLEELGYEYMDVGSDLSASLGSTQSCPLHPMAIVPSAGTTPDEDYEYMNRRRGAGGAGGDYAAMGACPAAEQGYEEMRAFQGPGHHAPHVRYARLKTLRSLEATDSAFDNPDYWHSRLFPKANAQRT
T2 sequence (P06494 23-1257 partner): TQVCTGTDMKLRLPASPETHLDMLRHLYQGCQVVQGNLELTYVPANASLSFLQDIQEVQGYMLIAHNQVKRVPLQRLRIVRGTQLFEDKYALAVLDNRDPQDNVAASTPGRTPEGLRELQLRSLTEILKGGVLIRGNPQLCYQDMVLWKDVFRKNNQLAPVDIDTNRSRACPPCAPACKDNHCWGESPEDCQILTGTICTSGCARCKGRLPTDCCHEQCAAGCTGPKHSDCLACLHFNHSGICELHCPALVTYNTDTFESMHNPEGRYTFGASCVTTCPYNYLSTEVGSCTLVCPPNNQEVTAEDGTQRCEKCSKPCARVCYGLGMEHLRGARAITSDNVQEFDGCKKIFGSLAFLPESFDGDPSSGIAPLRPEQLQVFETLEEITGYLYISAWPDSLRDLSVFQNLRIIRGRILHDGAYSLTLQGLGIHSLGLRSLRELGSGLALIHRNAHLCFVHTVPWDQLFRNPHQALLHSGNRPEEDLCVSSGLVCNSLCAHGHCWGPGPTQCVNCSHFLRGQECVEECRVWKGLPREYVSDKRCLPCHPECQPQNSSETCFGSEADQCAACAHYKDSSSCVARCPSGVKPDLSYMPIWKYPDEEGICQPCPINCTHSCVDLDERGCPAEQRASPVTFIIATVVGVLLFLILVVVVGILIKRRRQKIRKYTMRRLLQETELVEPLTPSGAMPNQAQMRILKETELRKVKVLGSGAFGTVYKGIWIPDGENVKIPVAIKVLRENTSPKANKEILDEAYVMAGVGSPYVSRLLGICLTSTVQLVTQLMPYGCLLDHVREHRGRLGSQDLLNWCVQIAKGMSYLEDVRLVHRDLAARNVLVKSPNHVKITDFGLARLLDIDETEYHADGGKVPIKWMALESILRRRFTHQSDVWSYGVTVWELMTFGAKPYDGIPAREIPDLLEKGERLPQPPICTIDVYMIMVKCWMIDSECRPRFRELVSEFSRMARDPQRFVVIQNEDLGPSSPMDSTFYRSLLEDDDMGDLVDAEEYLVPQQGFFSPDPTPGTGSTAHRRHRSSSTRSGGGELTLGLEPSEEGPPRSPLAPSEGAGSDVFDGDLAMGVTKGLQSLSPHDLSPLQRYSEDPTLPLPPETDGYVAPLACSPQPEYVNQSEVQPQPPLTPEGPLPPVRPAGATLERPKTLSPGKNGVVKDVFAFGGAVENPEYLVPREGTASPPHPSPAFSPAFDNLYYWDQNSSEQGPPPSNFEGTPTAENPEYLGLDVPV
In words: In vitro phosphorylation of Akt in rat Schwann cells. Format: cell-based. Conditions: Akt (Serine 473) phosphorylation, 15 minutes treatment, read-out: Schwann cells (SC) (ErbB3) Avg EC50. As to the method:
as §1, §2, §3

Several values for one entry are separate records, joined by “and”; a condition that tells them apart may be missing. Identical values can stand only once.

T1 sequence (Q62956 26-1308): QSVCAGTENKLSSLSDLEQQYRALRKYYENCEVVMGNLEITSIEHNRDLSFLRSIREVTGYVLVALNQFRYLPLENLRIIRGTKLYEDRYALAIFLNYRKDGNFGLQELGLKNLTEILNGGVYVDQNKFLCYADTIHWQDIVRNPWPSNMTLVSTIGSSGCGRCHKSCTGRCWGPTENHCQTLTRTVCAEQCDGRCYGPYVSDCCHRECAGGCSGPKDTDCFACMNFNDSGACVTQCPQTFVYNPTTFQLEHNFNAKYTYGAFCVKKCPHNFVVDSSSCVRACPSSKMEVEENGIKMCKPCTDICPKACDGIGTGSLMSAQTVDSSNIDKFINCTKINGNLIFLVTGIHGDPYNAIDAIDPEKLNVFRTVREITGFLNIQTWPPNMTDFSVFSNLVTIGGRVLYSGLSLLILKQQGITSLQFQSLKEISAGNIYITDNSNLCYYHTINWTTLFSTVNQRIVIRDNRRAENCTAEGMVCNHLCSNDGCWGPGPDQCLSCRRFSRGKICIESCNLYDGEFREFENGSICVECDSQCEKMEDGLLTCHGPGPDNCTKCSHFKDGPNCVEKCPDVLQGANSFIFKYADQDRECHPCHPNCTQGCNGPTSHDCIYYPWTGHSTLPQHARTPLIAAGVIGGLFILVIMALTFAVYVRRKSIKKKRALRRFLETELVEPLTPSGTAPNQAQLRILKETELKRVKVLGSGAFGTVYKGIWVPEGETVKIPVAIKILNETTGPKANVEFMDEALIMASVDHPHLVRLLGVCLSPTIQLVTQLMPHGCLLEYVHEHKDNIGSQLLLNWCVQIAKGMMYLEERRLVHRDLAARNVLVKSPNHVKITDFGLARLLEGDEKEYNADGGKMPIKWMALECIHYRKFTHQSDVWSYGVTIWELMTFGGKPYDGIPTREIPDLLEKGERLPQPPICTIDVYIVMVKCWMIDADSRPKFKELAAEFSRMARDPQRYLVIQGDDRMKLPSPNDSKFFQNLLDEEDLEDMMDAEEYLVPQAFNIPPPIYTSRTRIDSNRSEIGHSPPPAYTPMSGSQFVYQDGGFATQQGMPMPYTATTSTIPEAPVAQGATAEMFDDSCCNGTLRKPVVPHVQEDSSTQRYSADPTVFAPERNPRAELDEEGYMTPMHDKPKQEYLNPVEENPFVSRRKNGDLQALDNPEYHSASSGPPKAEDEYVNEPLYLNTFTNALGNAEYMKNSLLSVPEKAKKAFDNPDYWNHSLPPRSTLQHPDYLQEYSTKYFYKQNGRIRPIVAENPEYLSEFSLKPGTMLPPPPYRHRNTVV
T1 sequence (P06494 23-1257 partner): as the sequence (P06494 23-1257 partner) above

Regarding “huNRG1(S177-Q237)(wt)::GG::huFcSEFL2 (Pb): Fc fusion of wild-type NRG1 fragment S177-Q237 [reference compound]”, in the test with ErbB4, the “Selectivity SC/CM” value is 0.4 and 0.3; the “CM % Agonism AVG” value is given as “Full”. In the test with ErbB3, the EC50 is 0.112 nM and 0.15 nM.

As for “huNRG1(S177-Q237)(wt)::3x(G4Q)::huFcSEFL2 (Pb): Fc fusion of wild-type NRG1 fragment S177-Q237 [reference compound]”, in the test with ErbB4, the EC50 stood at 0.21 nM and the “Selectivity SC/CM” value was 0.3. For the same substance, the concentration for a half-maximal effect (EC50) with ErbB3 stood at 0.07 nM.

Take “huNRG1(S177-F229)(wt)::3x(G4Q)::huFcSEFL2 (Pb): Fc fusion of wild-type NRG1 fragment S177-F229 [reference compound]”: in the test with ErbB4, the EC50 is 0.34 nM and the “Selectivity SC/CM” value was 0.3.

As for “huNRG1(S177-S228)(wt)((G4E)2:G4)::huFcSEFL2 (Pb): Fc fusion of wild-type NRG1 fragment S177-S228 [reference compound]”, in the test with ErbB4, the EC50 is 0.084 nM, the “Selectivity SC/CM” value is recorded as 0.2643 and the “CM % Agonism AVG” value came to 92.6%. For the same substance, the half-maximal effective concentration (EC50) in the test with ErbB3 turned out to be 0.0222 nM.

As to “huNRG1(S177-F229)(NRGE1D) (E47K_D48L_F49D_M50I) huIgG1z SELF2 Fc: Fc fusion of NRG1 variant SEQ ID NO:127”, in the test with ErbB4, the EC50 is 0.15 nM, the “Selectivity SC/CM” value is on record as 62.2 and the “CM % Agonism AVG” value is listed as 88.5%. Besides, the EC50 with ErbB3 was determined as 9.33 nM.

“huNRG1(S177-F229)(NRGE1C) (E47S_D48T_F49R_M50V) huIgG1z SELF2 Fc: Fc fusion of NRG1 variant SEQ ID NO:123”: in the test with ErbB4, the EC50 worked out at 0.19 nM, the “Selectivity SC/CM” value is over 10000 and the “CM % Agonism AVG” value is 76%. In addition, in the test with ErbB3, the EC50 came to 10000 nM.

With “huNRG1(S177-F229)(NRGE1D) (E47S_D48S_F49E_M50L) huIgG1z SELF2 Fc: Fc fusion of NRG1 variant SEQ ID NO:128”, in the test with ErbB4, the EC50 worked out at 0.37 nM, the “Selectivity SC/CM” value was over 10000 and the “CM % Agonism AVG” value was 86.3%. Further, in the test with ErbB3, the 50% effective concentration (EC50) is 10000 nM.

As to “huNRG1(S177-F229)(NRGE1D) (E47T_D48S_F49L_M50L) hnIgG1z SELF2 Fc: Fc fusion of NRG1 variant SEQ ID NO:129”, in the test with ErbB4, the EC50 is 0.39 nM, the “Selectivity SC/CM” value is recorded as over 10000 and the “CM % Agonism AVG” value was 79.5%. Also, the EC50 with ErbB3 is 10000 nM.

As usually defined, the EC50 is the midpoint of the concentration-response curve.

Values taken from patent publication US12692294B2, “Engineered NRG-1 variants with improved selectivity toward ErbB4 but not against ErbB3” (Amgen Inc., priority 2021, dated 2026).
